Molecular target: T1, GST-tagged full-length TAF15 (human, UniProt Q92804 1-592)
T1 construct: TAF15, human, full length, cloned into pGEX-6p-1; Immobilised on glutathione-Sepharose 4B in the pull-down; also called GST-TAF15; source: E. coli BL21, purified (Glutathione Sepharose)
Assay: pull-down; GST pull-down: GST-TAF15 or GST alone immobilised on glutathione-Sepharose 4B, His-NOP58 added, 1 h at 4 °C in 50 mM Tris-HCl pH 7.5, 150 mM NaCl, 10 mM MgCl2, 10% glycerol, 1% Triton X-100, 1 mM DTT, 1% BSA; western blot; also with in vitro transcribed INHEG
Conditions: both partners purified

T1 sequence (Q92804 whole entry): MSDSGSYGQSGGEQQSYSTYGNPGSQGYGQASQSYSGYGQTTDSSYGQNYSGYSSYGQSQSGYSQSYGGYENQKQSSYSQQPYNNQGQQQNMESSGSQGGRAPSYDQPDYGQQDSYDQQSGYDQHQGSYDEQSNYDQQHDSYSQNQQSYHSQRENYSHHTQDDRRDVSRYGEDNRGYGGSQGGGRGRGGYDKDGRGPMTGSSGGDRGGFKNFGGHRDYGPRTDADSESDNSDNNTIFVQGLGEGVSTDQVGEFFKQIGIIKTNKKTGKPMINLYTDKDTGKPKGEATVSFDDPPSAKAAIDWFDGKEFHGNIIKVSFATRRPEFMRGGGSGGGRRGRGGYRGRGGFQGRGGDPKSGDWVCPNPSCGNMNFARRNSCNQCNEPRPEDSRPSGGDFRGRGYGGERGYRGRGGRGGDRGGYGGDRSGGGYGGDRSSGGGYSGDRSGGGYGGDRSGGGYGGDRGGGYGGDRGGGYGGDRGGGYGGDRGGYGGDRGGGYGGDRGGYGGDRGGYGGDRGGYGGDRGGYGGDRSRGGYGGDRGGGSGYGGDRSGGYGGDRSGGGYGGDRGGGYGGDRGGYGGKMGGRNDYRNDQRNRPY

B1: His-tagged full-length NOP58 (natural protein, human, UniProt Q9Y2X3 1-529, looked up)
chain: MLVLFETSVGYAIFKVLNEKKLQEVDSLWKEFETPEKANKIVKLKHFEKFQDTAEALAAFTALMEGKINKQLKKVLKKIVKEAHEPLAVADAKLGGVIKEKLNLSCIHSPVVNELMRGIRSQMDGLIPGVEPREMAAMCLGLAHSLSRYRLKFSADKVDTMIVQAISLLDDLDKELNNYIMRCREWYGWHFPELGKIISDNLTYCKCLQKVGDRKNYASAKLSELLPEEVEAEVKAAAEISMGTEVSEEDICNILHLCTQVIEISEYRTQLYEYLQNRMMAIAPNVTVMVGELVGARLIAHAGSLLNLAKHAASTVQILGAEKALFRALKSRRDTPKYGLIYHASLVGQTSPKHKGKISRMLAAKTVLAIRYDAFGEDSSSAMGVENRAKLEARLRTLEDRGIRKISGTGKALAKTEKYEHKSEVKTYDPSGDSTLPTCSKKRKIEQVDKEDEITEKKAKKAKIKVKVEEEEEEKVAEEEETSVKKKKKRGKKKHIKEEPLSEEEPCTSTAIASPEKKKKKKKKRENED
notes: NOP58, human, full length, cloned into pET-28a; also called His-NOP58; source: E. coli BL21, purified (Ni-NTA)
B1: binds.

Source: paper PMC10657414, “LncRNA INHEG promotes glioma stem cell maintenance and tumorigenicity through regulating rRNA 2’-O-methylation” (Nature Communications, 2023)
